Results published in patent US9284543B2, “Neutral active soluble truncated PH20 polypeptides and uses thereof” (Halozyme, Inc., priority 2008, dated 2016).

What was measured:
[1] = Microtiter hyaluronidase activity assay with biotinylated-hyaluronic acid; format: biochemical; conditions: for pH 5.5 Activity / pH 7.4 Activity: 72 hour post transfection supernatant
CHO-S cells = experiment: PI-PLC treatment of expressing cells, Western blot of media and cells; format: cell-based, Chinese Hamster; conditions: cells incubated with PI-PLC for 2 hours
Description: In this example, following transient expression, as described in Example 2 above, the media and cells were harvested separately and analyzed for PH20 expression and solublility by Western blot analysis. Solubility of the C-terminus truncation mutants was determined by examining whether the expressed protein was present in the growth media or in the cells. […] Cells expressing these mutants were treated with phosphoinositol-phospholipase C (PI-PLC), which cleaves the GPI-anchor allowing the release of soluble protein into the media, and the presence of PH20 in the resulting media and cells was determined by Western blot analysis.
Following expression of rHuPH20 in CHO—S cells for 72 hours, as described in Example 2A above, the media and cells were harvested separately. The cells were washed with serum-free media followed by the addition of 2 mL serum-free media per well. PI-PLC (0.5 units/well) was added to each well and the cells were incubated in the PI-PLC for 2 hours. The resultant media and cells were analyzed by Western blot analysis as described above.
Two plates each of rHuPH20 expressing CHO—S cells, one for treatment with PI-PLC and one without treatment with PI-PLC, were prepared for each C-terminus mutant as described in Example 2B above. Following expression for 48 hours, for cells untreated with PI-PLC, the media and cells were harvested separately. The harvested media was spun down, concentrated to a volume of 10 mL, and buffer exchanged into PBS using an Amicon 30 kD MWCO concentrator. The cells were rinsed with cold PBS and scraped and resuspended in 1.2 mL PBS with protease inhibitor Set III (Cat No. 539134, Calbiochem). The resuspended cells were briefly sonicated to prepare whole-cell extract. For PI-PLC treatment of cells, following expression for 48 hours, the untreated media was harvested, as described above. The cells were rinsed once with fresh CD DG44 medium with Glutamax-1, and the media was replaced with 12 mL fresh detergent free CD DG44 medium supplemented with Glutamax-1 with 3.0 units PI-PLC per dish, and the cells were incubated for 2 hours at 37° C. with 5% CO2. After 2 hours, the PI-PLC media and cells were harvested separately, as described above. The resultant untreated media and cells, and PI-PLC treated media and cells, were analyzed by Western blot analysis as described above.

B1: SPAM1-FLII: C-terminally truncated human PH20, precursor 503 aa (SEQ ID NO:5), mature 468 aa (SEQ ID NO:57) (protein, listed as Homo sapiens)
chain 1: MGVLKFKHIFFRSFVKSSGVSQIVFTFLLIPCCLTLNFRAPPVIPNVPFLWAWNAPSEFCLGKFDEPLDMSLFSFIGSPRINATGQGVTIFYVDRLGYYPYIDSITGVTVNGGIPQKISLQDHLDKAKKDITFYMPVDNLGMAVIDWEEWRPTWARNWKPKDVYKNRSIELVQQQNVQLSLTEATEKAKQEFEKAGKDFLVETIKLGKLLRPNHLWGYYLFPDCYNHHYKKPGYNGSCFNVEIKRNDDLSWLWNESTALYPSIYLNTQQSPVAATLYVRNRVREAIRVSKIPDAKSPLPVFAYTRIVFTDQVLKFLSQDELVYTFGETVALGASGIVIWGTLSIMRSMKSCLLLDNYMETILNPYIINVTLAAKMCSQVLCQEQGVCIRKNWNSSDYLHLNPDNFAIQLEKGGKFTVRGKPTLEDLEQFSEKFYCSCYSTLSCKEKADVKDTDAVDVCIADGVCIDAFLKPPMETEEPQIFYNASPSTLSATMFIVSILFLII
chain 2: LNFRAPPVIPNVPFLWAWNAPSEFCLGKFDEPLDMSLFSFIGSPRINATGQGVTIFYVDRLGYYPYIDSITGVTVNGGIPQKISLQDHLDKAKKDITFYMPVDNLGMAVIDWEEWRPTWARNWKPKDVYKNRSIELVQQQNVQLSLTEATEKAKQEFEKAGKDFLVETIKLGKLLRPNHLWGYYLFPDCYNHHYKKPGYNGSCFNVEIKRNDDLSWLWNESTALYPSIYLNTQQSPVAATLYVRNRVREAIRVSKIPDAKSPLPVFAYTRIVFTDQVLKFLSQDELVYTFGETVALGASGIVIWGTLSIMRSMKSCLLLDNYMETILNPYIINVTLAAKMCSQVLCQEQGVCIRKNWNSSDYLHLNPDNFAIQLEKGGKFTVRGKPTLEDLEQFSEKFYCSCYSTLSCKEKADVKDTDAVDVCIADGVCIDAFLKPPMETEEPQIFYNASPSTLSATMFIVSILFLII
modifications: HuPH20 precursor 1-503; mature HuPH20 36-503
For B1, the “pH 5.5 Activity” value ([1]; Table 6) was 0.6345 Units/ml, the “pH 7.4 Activity” value ([1]; Table 6) was 0.9405 Units/ml and the “pH 5.5 Activity” value ([1]; Table 6A) was 0.648 Units/ml. For the same molecule, the “pH 7.4 Activity” value ([1]; Table 6A) was 1.094 Units/ml and the “Expressed in Media Following Addition of PI-PLC” value (shortened to “Expressed”) (CHO-S cells) was “YES”.

B2: SPAM1-SSVA: C-terminally truncated human PH20, precursor 507 aa (SEQ ID NO:3), mature 472 aa (SEQ ID NO:55) (protein, listed as Homo sapiens)
chain 1: MGVLKFKHIFFRSFVKSSGVSQIVFTFLLIPCCLTLNFRAPPVIPNVPFLWAWNAPSEFCLGKFDEPLDMSLFSFIGSPRINATGQGVTIFYVDRLGYYPYIDSITGVTVNGGIPQKISLQDHLDKAKKDITFYMPVDNLGMAVIDWEEWRPTWARNWKPKDVYKNRSIELVQQQNVQLSLTEATEKAKQEFEKAGKDFLVETIKLGKLLRPNHLWGYYLFPDCYNHHYKKPGYNGSCFNVEIKRNDDLSWLWNESTALYPSIYLNTQQSPVAATLYVRNRVREAIRVSKIPDAKSPLPVFAYTRIVFTDQVLKFLSQDELVYTFGETVALGASGIVIWGTLSIMRSMKSCLLLDNYMETILNPYIINVTLAAKMCSQVLCQEQGVCIRKNWNSSDYLHLNPDNFAIQLEKGGKFTVRGKPTLEDLEQFSEKFYCSCYSTLSCKEKADVKDTDAVDVCIADGVCIDAFLKPPMETEEPQIFYNASPSTLSATMFIVSILFLIISSVA
chain 2: LNFRAPPVIPNVPFLWAWNAPSEFCLGKFDEPLDMSLFSFIGSPRINATGQGVTIFYVDRLGYYPYIDSITGVTVNGGIPQKISLQDHLDKAKKDITFYMPVDNLGMAVIDWEEWRPTWARNWKPKDVYKNRSIELVQQQNVQLSLTEATEKAKQEFEKAGKDFLVETIKLGKLLRPNHLWGYYLFPDCYNHHYKKPGYNGSCFNVEIKRNDDLSWLWNESTALYPSIYLNTQQSPVAATLYVRNRVREAIRVSKIPDAKSPLPVFAYTRIVFTDQVLKFLSQDELVYTFGETVALGASGIVIWGTLSIMRSMKSCLLLDNYMETILNPYIINVTLAAKMCSQVLCQEQGVCIRKNWNSSDYLHLNPDNFAIQLEKGGKFTVRGKPTLEDLEQFSEKFYCSCYSTLSCKEKADVKDTDAVDVCIADGVCIDAFLKPPMETEEPQIFYNASPSTLSATMFIVSILFLIISSVA
modifications: HuPH20 precursor 1-507; mature HuPH20 36-507
In the case of B2, the “pH 5.5 Activity” value ([1]; Table 6) is reported as 1.125 Units/ml, the “pH 7.4 Activity” value ([1]; Table 6) is reported as 1.4715 Units/ml and the “pH 5.5 Activity” value ([1]; Table 6A) is reported as 1.256 Units/ml. The “pH 7.4 Activity” value ([1]; Table 6A) was 1.782 Units/ml and the “Expressed” value (CHO-S cells) was “YES”.

B3: SPAM1-IISS: C-terminally truncated human PH20, precursor 505 aa (SEQ ID NO:4), mature 470 aa (SEQ ID NO:56) (protein, listed as Homo sapiens)
chain 1: MGVLKFKHIFFRSFVKSSGVSQIVFTFLLIPCCLTLNFRAPPVIPNVPFLWAWNAPSEFCLGKFDEPLDMSLFSFIGSPRINATGQGVTIFYVDRLGYYPYIDSITGVTVNGGIPQKISLQDHLDKAKKDITFYMPVDNLGMAVIDWEEWRPTWARNWKPKDVYKNRSIELVQQQNVQLSLTEATEKAKQEFEKAGKDFLVETIKLGKLLRPNHLWGYYLFPDCYNHHYKKPGYNGSCFNVEIKRNDDLSWLWNESTALYPSIYLNTQQSPVAATLYVRNRVREAIRVSKIPDAKSPLPVFAYTRIVFTDQVLKFLSQDELVYTFGETVALGASGIVIWGTLSIMRSMKSCLLLDNYMETILNPYIINVTLAAKMCSQVLCQEQGVCIRKNWNSSDYLHLNPDNFAIQLEKGGKFTVRGKPTLEDLEQFSEKFYCSCYSTLSCKEKADVKDTDAVDVCIADGVCIDAFLKPPMETEEPQIFYNASPSTLSATMFIVSILFLIISS
chain 2: LNFRAPPVIPNVPFLWAWNAPSEFCLGKFDEPLDMSLFSFIGSPRINATGQGVTIFYVDRLGYYPYIDSITGVTVNGGIPQKISLQDHLDKAKKDITFYMPVDNLGMAVIDWEEWRPTWARNWKPKDVYKNRSIELVQQQNVQLSLTEATEKAKQEFEKAGKDFLVETIKLGKLLRPNHLWGYYLFPDCYNHHYKKPGYNGSCFNVEIKRNDDLSWLWNESTALYPSIYLNTQQSPVAATLYVRNRVREAIRVSKIPDAKSPLPVFAYTRIVFTDQVLKFLSQDELVYTFGETVALGASGIVIWGTLSIMRSMKSCLLLDNYMETILNPYIINVTLAAKMCSQVLCQEQGVCIRKNWNSSDYLHLNPDNFAIQLEKGGKFTVRGKPTLEDLEQFSEKFYCSCYSTLSCKEKADVKDTDAVDVCIADGVCIDAFLKPPMETEEPQIFYNASPSTLSATMFIVSILFLIISS
modifications: HuPH20 precursor 1-505; mature HuPH20 36-505
In the case of B3, the “pH 5.5 Activity” value ([1]; Table 6) is reported as 0.837 Units/ml, the “pH 7.4 Activity” value ([1]; Table 6) is reported as 1.458 Units/ml and the “pH 5.5 Activity” value ([1]; Table 6A) is reported as 0.932 Units/ml. For the same molecule, the “pH 7.4 Activity” value ([1]; Table 6A) was 1.863 Units/ml and the “Expressed” value (CHO-S cells) was “YES”.

B4: SPAM1-LFLI: C-terminally truncated human PH20, precursor 502 aa (SEQ ID NO:47), mature 467 aa (SEQ ID NO:99) (protein, listed as Homo sapiens)
chain 1: MGVLKFKHIFFRSFVKSSGVSQIVFTFLLIPCCLTLNFRAPPVIPNVPFLWAWNAPSEFCLGKFDEPLDMSLFSFIGSPRINATGQGVTIFYVDRLGYYPYIDSITGVTVNGGIPQKISLQDHLDKAKKDITFYMPVDNLGMAVIDWEEWRPTWARNWKPKDVYKNRSIELVQQQNVQLSLTEATEKAKQEFEKAGKDFLVETIKLGKLLRPNHLWGYYLFPDCYNHHYKKPGYNGSCFNVEIKRNDDLSWLWNESTALYPSIYLNTQQSPVAATLYVRNRVREAIRVSKIPDAKSPLPVFAYTRIVFTDQVLKFLSQDELVYTFGETVALGASGIVIWGTLSIMRSMKSCLLLDNYMETILNPYIINVTLAAKMCSQVLCQEQGVCIRKNWNSSDYLHLNPDNFAIQLEKGGKFTVRGKPTLEDLEQFSEKFYCSCYSTLSCKEKADVKDTDAVDVCIADGVCIDAFLKPPMETEEPQIFYNASPSTLSATMFIVSILFLI
chain 2: LNFRAPPVIPNVPFLWAWNAPSEFCLGKFDEPLDMSLFSFIGSPRINATGQGVTIFYVDRLGYYPYIDSITGVTVNGGIPQKISLQDHLDKAKKDITFYMPVDNLGMAVIDWEEWRPTWARNWKPKDVYKNRSIELVQQQNVQLSLTEATEKAKQEFEKAGKDFLVETIKLGKLLRPNHLWGYYLFPDCYNHHYKKPGYNGSCFNVEIKRNDDLSWLWNESTALYPSIYLNTQQSPVAATLYVRNRVREAIRVSKIPDAKSPLPVFAYTRIVFTDQVLKFLSQDELVYTFGETVALGASGIVIWGTLSIMRSMKSCLLLDNYMETILNPYIINVTLAAKMCSQVLCQEQGVCIRKNWNSSDYLHLNPDNFAIQLEKGGKFTVRGKPTLEDLEQFSEKFYCSCYSTLSCKEKADVKDTDAVDVCIADGVCIDAFLKPPMETEEPQIFYNASPSTLSATMFIVSILFLI
modifications: HuPH20 precursor 1-502; Mature HuPH20 36-502
In the case of B4, the “pH 5.5 Activity” value ([1]; Table 6A) is reported as 0.324 Units/ml, the “pH 7.4 Activity” value ([1]; Table 6A) is reported as 0.608 Units/ml and the “Hyaluronidase activity (in words)” value ([1]; pH 7.4 and pH 5.5) is reported as “little detectable activity”. For the same molecule, the “Expressed” value (CHO-S cells) was “YES”.
